# Reference: patent CN110357963A (BEIJING ZHIREN MEIBO BIOTECHNOLOGY CO LTD, dated 2019)
# Substitutions are numbered along the chain they refer to.
# T1: ST2L (IL1RL1) on cells (human, UniProt Q01638 19-556)
# T1 sequence (looked up): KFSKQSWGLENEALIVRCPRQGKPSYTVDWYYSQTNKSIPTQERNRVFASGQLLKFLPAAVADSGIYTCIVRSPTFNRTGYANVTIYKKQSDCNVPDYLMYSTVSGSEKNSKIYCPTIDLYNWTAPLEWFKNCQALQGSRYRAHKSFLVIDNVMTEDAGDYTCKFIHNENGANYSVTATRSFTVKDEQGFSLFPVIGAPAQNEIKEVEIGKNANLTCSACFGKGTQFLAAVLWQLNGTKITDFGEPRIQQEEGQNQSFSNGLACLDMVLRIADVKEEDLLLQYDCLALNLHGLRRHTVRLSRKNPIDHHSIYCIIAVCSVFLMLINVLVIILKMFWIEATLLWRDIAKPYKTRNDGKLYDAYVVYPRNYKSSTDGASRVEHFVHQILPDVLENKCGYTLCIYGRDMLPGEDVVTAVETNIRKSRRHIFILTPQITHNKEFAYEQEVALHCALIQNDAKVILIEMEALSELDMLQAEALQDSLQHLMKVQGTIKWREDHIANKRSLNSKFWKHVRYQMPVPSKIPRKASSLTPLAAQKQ
# T2: 小鼠ST2 (mST2-his) (mouse (mus musculus), UniProt P14719 27-332)
# T2 construct: not shown: His tag at C-terminus
# T2 sequence: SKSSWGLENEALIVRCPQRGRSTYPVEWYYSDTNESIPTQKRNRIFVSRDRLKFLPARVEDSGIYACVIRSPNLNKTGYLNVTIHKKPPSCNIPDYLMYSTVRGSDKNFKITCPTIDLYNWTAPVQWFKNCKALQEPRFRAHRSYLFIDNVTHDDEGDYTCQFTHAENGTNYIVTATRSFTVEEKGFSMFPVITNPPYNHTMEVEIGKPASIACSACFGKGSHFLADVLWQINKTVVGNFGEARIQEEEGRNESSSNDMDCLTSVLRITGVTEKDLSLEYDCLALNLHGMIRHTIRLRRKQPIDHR
# T3: 猕猴ST2 (mmST2-his) (rhesus macaque (Macaca mulatta), UniProt Q01638 19-328 (human entry))
# T3 construct: not shown: His tag at C-terminus
# T3 chain: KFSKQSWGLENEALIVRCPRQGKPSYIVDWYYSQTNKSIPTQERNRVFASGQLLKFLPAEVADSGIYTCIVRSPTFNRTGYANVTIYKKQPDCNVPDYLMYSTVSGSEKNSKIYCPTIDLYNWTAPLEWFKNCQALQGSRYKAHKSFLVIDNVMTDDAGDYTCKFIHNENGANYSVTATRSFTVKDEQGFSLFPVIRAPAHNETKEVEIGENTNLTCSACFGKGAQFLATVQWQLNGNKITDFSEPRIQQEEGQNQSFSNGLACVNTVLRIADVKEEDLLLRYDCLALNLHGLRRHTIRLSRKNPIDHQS
# T4: 重组人ST2-his (人ST2胞外区, C端His标签) (human (homo sapiens), UniProt Q01638 19-328)
# T4 construct: Expressed in HEK293 cells; also called hST2-his; hST2-His; not shown: His tag at C-terminus
# T4 sequence: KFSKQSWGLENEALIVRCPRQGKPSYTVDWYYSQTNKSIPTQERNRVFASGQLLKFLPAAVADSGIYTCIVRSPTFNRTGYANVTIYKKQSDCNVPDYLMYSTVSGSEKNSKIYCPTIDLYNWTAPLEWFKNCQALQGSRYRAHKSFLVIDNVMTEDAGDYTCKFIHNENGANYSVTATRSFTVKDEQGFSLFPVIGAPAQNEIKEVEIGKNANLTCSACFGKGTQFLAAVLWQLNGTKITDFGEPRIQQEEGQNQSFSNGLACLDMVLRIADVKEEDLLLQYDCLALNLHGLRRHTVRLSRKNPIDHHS
# B1: GSK3772847-IgG4 (antibody, V domains shown)
# VH: EVQLLESGGGLVQPGGSLRLSCAASGFTFSIYDMIWVRQAPGKGLEWVSSIRGEGGGTYYADSVKGRFTISRDNSKNTLYLQMNSLRAEDTAVYYCARDPWSTEGSFFVLDYWGQGTLVTVSS
# VL: EIVLTQSPATLSLSPGERATLSCRASQSVDDDLAWYQQKPGQAPRLLIYDASNRATGIPARFSGSGSGTDFTLTISSLEPEDFAVYYCQQYITAPLTFGQGTKVEIK
# notes: Positive control antibody made after US9382318B2/US9090694B2; also called 抗人ST2对照抗体GSK3772847
# B2: H5G10+L2G2 (antibody, IgG4, V domains shown)
# VH: EVQLVQSGAEVKKPGASVKVSCKVSGYTLTELSIHWVRQAPGKGLEWMGGFGPEDGEAIYAQKVQGRVILSEDTATDTAYMELSSLRSEDTAVYYCTNEDSGGLFDYWGQGTLVTVSS
# VL: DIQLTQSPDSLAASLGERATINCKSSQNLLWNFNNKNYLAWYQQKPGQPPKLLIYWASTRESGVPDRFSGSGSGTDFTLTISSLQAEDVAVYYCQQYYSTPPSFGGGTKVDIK
# notes: Full antibody, IgG4 heavy constant region
# B3: MSTT1041A-IgG4 (antibody, V domains shown)
# VH: EVQLVQSGAEVKKPGESLKISCKGSGYSFTNYWIGWVRQMPGKGLEWMGIIYPGNSDTRFSPSFQGQVTISADKSITTAYLQWSSLKASDTAMYYCARHGTSSDYYGLDVWGQGTTVTVSS
# VL: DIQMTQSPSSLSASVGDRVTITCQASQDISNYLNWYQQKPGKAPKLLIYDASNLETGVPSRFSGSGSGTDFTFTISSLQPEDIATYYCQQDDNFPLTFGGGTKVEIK
# notes: Positive control antibody made after US9382318B2/US9090694B2; also called 抗人ST2对照抗体MSTT1041A
# B4: H5G3+L1D1 (antibody, IgG4, V domains shown)
# VH: QVQLVQSGAEVKKPGASVKVSCKVFGYTLTELSMHWVRQAPGKGLEWMGSFDRGDGKTIYAQKFLGRVTMTEDTSTDTAYMELSSLRSEDTAVYYCTNEDSSGLFDFWGQGTLVTVSS
# VL: DIQLTQSPDSLAVSLGERATINCKSSQSLLYSFNNKNYLAWYQQKPGQPPNLLIYWASTRESGVPDRFSASGSGTDFTLTISSLQAEDVAVYYCQQYYGVPQTFGQGTKVEIK
# notes: IgG4 heavy constant region
# B5: S1A4-IgG4 (antibody, V domains shown)
# VH: B2 VH with E1Q, A58T, V64F, I69T, L70M, S71T, A75S, T97I, Y107F, L113T
# VL: not shown
# notes: Full antibody; also called 抗人ST2单克隆抗体S1A4
# B6: H6D3+L2G2 (antibody, IgG4, V domains shown)
# VH: QVQLVQSGAEVKKPGASVKVSCKVSGHTLTELSIHWVRQTPGKGLVWLGGFESEDGEAIYAQNFQGRVIMTEDTFTDTAYMELSSLRSEDTAVYYCTTEDSSGLIDYWGQGTLVTVSS
# VL: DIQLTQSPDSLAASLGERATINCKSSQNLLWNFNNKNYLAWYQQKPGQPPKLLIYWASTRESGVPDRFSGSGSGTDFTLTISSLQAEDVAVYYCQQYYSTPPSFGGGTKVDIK
# notes: as for B2
# B7: H6D6+L2G2 (antibody, IgG4, V domains shown)
# VH: QMQLVQSGAEVKKPGSSVKVSCKASGGTFSSYAISWVRQAPGKGLEWMGGFDPEDGETIYAQKFQGRVTMTEDTSTDTAYMELSSLRSEDTAVYYCTTEDSSGLLDFWGQGTLVTVSS
# VL: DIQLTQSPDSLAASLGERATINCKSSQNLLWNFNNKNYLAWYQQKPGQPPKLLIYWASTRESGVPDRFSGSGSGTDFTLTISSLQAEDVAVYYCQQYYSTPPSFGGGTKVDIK
# notes: as for B2
# B8: H5G3+L2G2 (antibody, IgG4, V domains shown)
# VH: B4 VH
# VL: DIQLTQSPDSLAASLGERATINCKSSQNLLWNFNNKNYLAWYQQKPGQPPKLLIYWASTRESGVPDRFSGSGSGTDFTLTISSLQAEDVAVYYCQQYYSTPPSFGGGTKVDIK
# notes: as for B2
# B9: H5E10+L2G2 (antibody, IgG4, V domains shown)
# VH: B2 VH with G52D, A58T, V64F, V68I, I69T, S71T, A75S, G102S
# VL: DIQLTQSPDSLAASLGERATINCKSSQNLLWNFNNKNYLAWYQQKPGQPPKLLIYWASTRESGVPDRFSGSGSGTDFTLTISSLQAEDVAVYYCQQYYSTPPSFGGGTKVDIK
# notes: as for B2
# B10: 全人源单链抗体S1A4 (scFv)
# scFv: QVQLVQSGAEVKKPGASVKVSCKVSGYTLTELSIHWVRQAPGKGLEWMGGFGPEDGETIYAQKFQGRVTMTEDTSTDTAYMELSSLRSEDTAVYYCINEDSGGLFDFWGQGTTVTVSSGGGGSGGGGSGGGGSDIQLTQSPDSLAVSLGERATINCKSSQSVLYSSNNKNYLAWYQQKPGQPPKLLIYWASTRESGVPDRFSGSGSGTDFTLTISSLQAEDVAVYYCQQYYSTPWTFGQGTKLEIK
# notes: also called S1A4 scFv
# B11: S1A4VH+L2G2 (antibody, V domains shown)
# VH: B2 VH with E1Q, A58T, V64F, I69T, L70M, S71T, A75S, T97I, Y107F, L113T
# VL: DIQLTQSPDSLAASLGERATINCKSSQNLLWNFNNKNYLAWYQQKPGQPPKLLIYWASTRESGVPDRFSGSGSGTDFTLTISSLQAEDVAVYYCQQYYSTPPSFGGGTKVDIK
# notes: Full antibody, heavy chain constant region IgG4 subtype
# B12: S1A4VH+L1D1 (antibody, V domains shown)
# VH: B2 VH with E1Q, A58T, V64F, I69T, L70M, S71T, A75S, T97I, Y107F, L113T
# VL: B4 VL
# notes: as for B11
# Biological target: T1, ST2L (IL1RL1) on cells
# Test: cell-based or functional assay
row,IC50 of inhibition of IFNγ secretion by PBMC co-stimulated with IL-33 and IL-12,Binder
1,15.7 pM,B1
2,17.5 pM,B2
3,37 pM,B3
4,38 pM,B4

# Biological target: T2, 小鼠ST2 (mST2-his)
# Test: ELISA, mST2-his coated 1 µg/mL, HRP anti-human IgG
row,binding result,Binder
1,binds,B5
2,binds,B6
3,binds,B7
4,binds,B8
5,binds,B9
6,binds,B4

# Biological target: T3, 猕猴ST2 (mmST2-his)
# Test: ELISA, mmST2-his coated 1 µg/mL, HRP anti-human IgG
row,binding result,Binder
1,binds,B5
2,binds,B6
3,binds,B7
4,binds,B8
5,binds,B9
6,binds,B4

# Biological target: T4, 重组人ST2-his (人ST2胞外区, C端His标签)
# Test: phage display solid-phase panning on recombinant human ST2-his
row,binding result,Binder
1,binds,B10

# Biological target: T2, 小鼠ST2 (mST2-his)
# Test: ELISA, mST2-his coated at 1 µg/mL, HRP anti-human IgG detection
row,binding result,Binder
1,no binding,B2

# Biological target: T4, 重组人ST2-his (人ST2胞外区, C端His标签)
# Test: SPR Biacore X100 as in Example 3.4, antibody captured, hST2-his analyte
row,Kd,Binder
1,79.4 pM,B11
2,111 pM,B5
3,152 pM,B12

# Biological target: T4, 重组人ST2-his (人ST2胞外区, C端His标签)
# Test: as above
# Remark: another data set of the same source
row,Kd,Binder
1,139 pM,B5
2,85.2 pM,B2
3,37.3 pM,B6
4,695 pM,B7
5,115 pM,B8
6,709 pM,B9

# Biological target: T4, 重组人ST2-his (人ST2胞外区, C端His标签)
# Test: competition ELISA, hST2-his coated, competitor hIL33-mFc 0.5 µg/mL, antibody titrated
row,IC50,Binder
1,5520 pM,B1
2,4150 pM,B5
3,3790 pM,B3

# Biological target: T4, 重组人ST2-his (人ST2胞外区, C端His标签)
# Test: SPR Biacore X100, antibody captured by anti-human Fc, hST2-his analyte, 25 °C, 1:1 model
row,Kd,Binder
1,109 pM,B1
2,135 pM,B5
3,240 pM,B3
